# From patent US20240002497A1 (Merck Sharp & Dohme, published 2024)
# B1: F0103275B05 (VHH)
# VHH: EVQLVESGGGLVQPGGSLRLSCAASGSIFNINSMAWYRRAPGKQRELVASSTNGGSTNYADSVKGRFTISRDNAKRVYLQMNSLTPEDTAVYYCNALLQPSIYDISRTYWGQGTLVTVSS
# notes: entry includes the FLAG-HIS6 tag; also called F0103275B05 (parental)-FLAG-HIS6
# B2: F010301656 (VHH)
# VHH: EVQLVESGGGLAQPGGSLRLSCAASGPVFNINRMAWYRRAPGKQRELVAYVTPTGDISYTDSVKGRFTISRDGSKRWSLQMNSLTPEDTAVYYCRALLQPDSYSNTRTYWGQGTLVTVSS
# notes: also called F0103387G04(K33R, S50Y, S56D, N93R)-FLAG3-HIS6
# B3: F010302383 (VHH)
# VHH: EVQLVESGGGVVQPGGSLRLSCAASGPVFNINRMAWYRQAPGKQRELVAYVTPTGDISYADSVKGRFTISRGGSKRVYLQMNSLRPEDTALYYCRALLQPSSYSGTRTYWGQGTLVTVSS
# notes: also called F0103387G04(L11V, A12V, K33R, R39Q, S50Y, S56D, T60A, D72G, W78V, S79Y, T83R, V89L, N93R, D99S, N100cG)+FLAG3-HIS6
# Columns and labels:
# huNav1.7α + β1-β2-β3 [1] = biological target: T1, huNav1.7α + β1-β2-β3 (human, UniProt Q15858 1-1988; A5A6L6 19-218; O60939 30-215; Q2KI11 23-215); experiment: binding FACS, CHO FlpIn cells
# T1 construct: Cell line (CHO FlpIn, HEK FlpIn, transient HEK293T) is named under assay; also called huNav1.7-beta1-beta2-beta3; human Nav1.7α with Navβ1, Navβ2 and Navβ3
# Method in brief: (§1)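 Flow cytometry binding assay on stable CHO FlpIn cell lines expressing Nav1.7α (human wild type, single DI S5-S6 point variants, or rhesus) with β1-β2-β3. Cells in FACS buffer (PBS, 10% FBS, NaN₃) were plated at 1×10^5 cells/well in 96-well V-bottom plates. FLAG3-tagged ISVDs were added for 30 minutes at 4° C and detected with murine anti-Flag. Dead cells were excluded using 1 μg/mL propidium iodide, and EC50 was determined.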
# [2] = biological target: T2, huNav1.7α(F276V) + β1-β2-β3 (human, UniProt Q15858 1-1988; A5A6L6 19-218; O60939 30-215; Q2KI11 23-215); experiment: binding FACS, CHO FlpIn cells
# T2 construct: polyprotein as encoded, P2A sites liberate the subunits; the entry already carries F276V; also called huNav1.7(F276V)-beta1-beta2-beta3
# Method in brief: as §1
# [3] = biological target: T3, huNav1.7α(R277Q) + β1-β2-β3 (human); experiment: binding FACS, CHO FlpIn cells
# T3 construct: polyprotein as encoded; the entry already carries R277Q; also called huNav1.7(R277Q)-beta1-beta2-beta3
# Method in brief: as §1
# [4] = biological target: T4, huNav1.7α(E281V) + β1-β2-β3 (human); experiment: binding FACS, CHO FlpIn cells
# T4 construct: polyprotein as encoded; the entry already carries E281V; also called huNav1.7(E281V)-beta1-beta2-beta3
# Method in brief: as §1
# [5] = biological target: T5, huNav1.7α(V331M) + β1-β2-β3 (human); experiment: binding FACS, CHO FlpIn cells
# T5 construct: polyprotein as encoded; the entry already carries V331M; also called huNav1.7(V331M)-beta1-beta2-beta3
# Method in brief: as §1
# huNav157chim4 + β1-β2-β3 = biological target: T6, huNav157chim4 + β1-β2-β3 (human, UniProt Q15858 44-1988; A5A6L6 19-218; O60939 30-215; Q2KI11 23-215); experiment: FACS, transiently transfected HEK293T cells
# T6 construct: DII, DIII, DIV from Nav1.7α, DI from Nav1.5α; also called huNav157 chimera 4
# Experimental: (§2) Binding of the ISVDs to cell-expressed Nav1.7α was detected via murine anti-Flag (Sigma, catalog #F1804). Briefly, cells were resuspended in FACS buffer (PBS, 10% FBS, NaN₃) and transferred to a 96-well V-bottom plate at 1×10^5 cells/well. Purified FLAG3-tagged ISVD was diluted in FACS buffer and added to the cells for 30 minutes at 4° C. […] Prior to the read-out, the samples were resuspended in 1 μg/mL propidium iodide (Sigma, catalog #P4170) to exclude dead cells. Between each step, the cells were centrifuged for 5 minutes at 200 grams and washed with 100 μL/well FACS buffer.
# (§3) FACS binding studies (as described above) were performed on HEK293T cells transiently transfected with expression vectors encoding a huNav1.7α or rhNav1.7α fused at the C-terminus via a P2A viral peptide linker to a single polypeptide encoding sodium channel beta subunits Navβ1, Navβ2, and Navβ3 in tandem (β1-β2-β3; SEQ ID NO:21). Similarly, HEK293T cells transiently transfected with expression vectors encoding chimeric variants of huNav1.7α in which individual domains are replaced by their huNav1.5α counterparts (chimeras 1 to 4 in FIG. 16) or with chimeric variants of huNav1.5 in which individual domains are replaced by their huNav1.7α counterparts (chimeras 5 to 8 in FIG. 16) fused at the C-terminus via a P2A viral peptide linker to β1-β2-β3 as above. See Table 7 for description of the expression vectors encoding the chimeras, Table 21 and FIG. 16).
# huNav157chim5 + β1-β2-β3 = biological target: T7, huNav157chim5 + β1-β2-β3 (human); experiment: FACS, transiently transfected HEK293T cells
# T7 construct: DI, DII, DIII from Nav1.5α, DIV from Nav1.7α; also called huNav157 chimera 5
# Experimental: as §2, §3
# huNav157chim6 + β1-β2-β3 = biological target: T8, huNav157chim6 + β1-β2-β3 (human); experiment: FACS, transiently transfected HEK293T cells
# T8 construct: DI, DII, DIV from Nav1.5α, DIII from Nav1.7α; also called huNav157 chimera 6
# Experimental: as §2, §3
# huNav157chim7 + β1-β2-β3 = biological target: T9, huNav157chim7 + β1-β2-β3 (human); experiment: FACS, transiently transfected HEK293T cells
# T9 construct: DI, DIII, DIV from Nav1.5α, DII from Nav1.7α; also called huNav157 chimera 7
# Experimental: as §2, §3
# [6] = biological target: T10, huNav157chim12 + β1-β2-β3 (human, UniProt Q15858 1-1988; A5A6L6 19-218; O60939 30-215; Q2KI11 23-215); experiment: FACS, transiently transfected HEK293T cells
# T10 construct: DI S5-S6 from Nav1.5α, rest Nav1.7α; also called huNav157 chimera 12
# Experimental: as §2, §3
# huNav157chim1 + β1-β2-β3 = biological target: T11, huNav157chim1 + β1-β2-β3 (human, UniProt Q15858 1-1962; A5A6L6 19-218; O60939 30-215; Q2KI11 23-215); experiment: FACS, transiently transfected HEK293T cells
# T11 construct: DI, DII, DIII from Nav1.7α, DIV from Nav1.5α; fused by P2A to β1-β2-β3; also called huNav157 chimera 1
# Experimental: as §2, §3
# huNav1.7α + β1-β2-β3 [7] = biological target: T1, huNav1.7α + β1-β2-β3; experiment: competition FACS, HEK FlpIn cells, vs EC30 of CMYC3-F0103265B04
# Method in brief: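 HEK FlpIn cells expressing huNav1.7α+β1-β2-β3 (1×10⁵/well) were incubated 1.5 h at 4 °C with a dilution series of purified ISVD plus CMYC3-tagged F0103265B04 at EC30-equivalent concentration in PBS, 2% FBS, 0.05% NaN₃. Flow cytometry read-out with 5 nM TOPRO3 to exclude dead cells.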
# huNav1.7α + β1 [8] = biological target: T12, huNav1.7α + β1 (human); experiment: binding FACS, HEK
# T12 construct: HEK293 cells; also called huNav1.7-beta1; huNav1.7-β1
# huNav1.7α = biological target: T13, huNav1.7α (human, UniProt Q15858 1-1988); experiment: binding FACS, HEK
# T13 construct: HEK cells expressing the α subunit without β subunits; also called huNav1.7 (alpha-subunit); Human Nav1.7α
# rhNav1.7α + β1-β2-β3 [9] = biological target: rhNav1.7α + β1-β2-β3 (rhesus monkey); experiment: cell-based or functional assay
# huNav1.7α + β1 [10] = biological target: T12, huNav1.7α + β1; experiment: cell-based or functional assay
# rhNav1.7α + β1-β2-β3 [11] = biological target: rhNav1.7α + β1-β2-β3 (rhesus monkey); experiment: cell-based or functional assay; remark: listed apart in the source
# huNav1.7α + β1 [12] = biological target: T12, huNav1.7α + β1; experiment: cell-based or functional assay; remark: listed apart in the source
# huNav1.7α + β1-β2-β3 [13] = biological target: T14, huNav1.7α + β1-β2-β3 (human, UniProt Q15858 1-1988; A5A6L6 19-218; O60939 30-215; Q2KI11 23-215); experiment: competition FACS vs EC25 of 275B05(N93R), CHO FlpIn
# T14 construct: also called huNav1.7-beta1-beta2-beta3; huNav1.7-β1-β2-β3
# rhNav1.7α + β1-β2-β3 [14] = biological target: T15, rhNav1.7α + β1-β2-β3 (rhesus monkey); experiment: as above
# T15 construct: also called rhNav1.7-beta1-beta2-beta3; rhNav1.7-β1-β2-β3
# huNav1.7α + β1-β2-β3 [15] = biological target: T14, huNav1.7α + β1-β2-β3; experiment: competition FACS IC50 with 50 µM human SA against without
# rhNav1.7α + β1-β2-β3 [16] = biological target: T15, rhNav1.7α + β1-β2-β3; experiment: as above
# huNav1.7α + β1-β2-β3 [17] = biological target: T14, huNav1.7α + β1-β2-β3; experiment: competition FACS vs EC25 of 275B05(N93R), CHO FlpIn, + 50 µM human SA
# rhNav1.7α + β1-β2-β3 [18] = biological target: T15, rhNav1.7α + β1-β2-β3; experiment: as above
# huNav1.7α+β1-β2-β3 = biological target: T16, huNav1.7α+β1-β2-β3 (human, UniProt Q15858 1-1988; Q07699 19-218; O60939 30-215; Q9NY72 23-215); experiment: binding FACS
# T16 construct: 5N11S variant; also called huNav1.7-beta1-beta2-beta3; huNav1.7α+Navβ1-Navβ2-Navβ3
# rhNav1.7α+β1-β2-β3 = biological target: T17, rhNav1.7α+β1-β2-β3 (rhesus monkey α subunit with human β …); experiment: binding FACS
# T17 construct: P2A cleaves it into α, β1, β2, β3; also called rhNav1.7-beta1-beta2-beta3
binder,measurement,setting,value
B1,EC50,huNav1.7α + β1-β2-β3 [1],30 nM
same,EC50,[2],26 nM
same,EC50,[3],25 nM
same,EC50,[4],24 nM
same,EC50,[5],21 nM
same,binding result,huNav157chim4 + β1-β2-β3,no binding (tested: 1 µM)
same,binding result,huNav157chim5 + β1-β2-β3,no binding (tested: 1 µM)
same,binding result,huNav157chim6 + β1-β2-β3,no binding (tested: 1 µM)
same,binding result,huNav157chim7 + β1-β2-β3,no binding (tested: 1 µM)
same,binding result,[6],no binding (tested: 1 µM)
same,binding result,huNav157chim1 + β1-β2-β3,no binding (tested: 1 µM)
same,IC50,huNav1.7α + β1-β2-β3 [7],98 nM
B2,EC50,huNav1.7α + β1 [8],4.2 nM
same,EC50,huNav1.7α,4.9 nM
same,"Qpatch IC50 [M], HEK cells",rhNav1.7α + β1-β2-β3 [9],6e-09 M
same,"Qpatch IC50 [M], HEK cells",huNav1.7α + β1 [10],1.8e-08 M
same,"QPatch electrophysiology IC50 [M], HEK cells",rhNav1.7α + β1-β2-β3 [11],6e-09 M
same,"QPatch electrophysiology IC50 [M], HEK cells",huNav1.7α + β1 [12],1.8e-08 M
same,IC50,huNav1.7α + β1-β2-β3 [13],37 nM
same,IC50,rhNav1.7α + β1-β2-β3 [14],14 nM
same,Human SA ratio,huNav1.7α + β1-β2-β3 [15],1
same,Human SA ratio,rhNav1.7α + β1-β2-β3 [16],1
same,IC50,huNav1.7α + β1-β2-β3 [17],39 nM
same,IC50,rhNav1.7α + β1-β2-β3 [18],16 nM
B3,fold improved binding vs F0103387G04,huNav1.7α+β1-β2-β3,2 fold
same,fold improved binding vs F0103387G04,rhNav1.7α+β1-β2-β3,20 fold
